This series has as its target T1, Veg1 (unfused three-finger ZFP) (Artificial (human SP1 backbone), UniProt P08047 SEQ:1-99).
T1 chain: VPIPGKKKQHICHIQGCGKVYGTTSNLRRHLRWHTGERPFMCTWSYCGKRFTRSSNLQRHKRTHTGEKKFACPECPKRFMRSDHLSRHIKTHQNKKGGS
The series can be described thus: EMSA; apparent Kd (half-maximal binding), 100 mM KCl, 1 mM MgCl2, 100 uM ZnCl2, room temperature; not corrected for purity. The following applies: tags: none, expressed in E. coli BL21/DE3 from pET15b, >50% pure; label: 5' 32P top strand. The method, then: Assays for binding of Veg1 to the target oligonucleotide (above) were performed by titrating protein against a fixed amount of duplex target. Binding reactions contained 50 pM 5′ ³²P labeled double stranded target DNA, 10 mM Tris-HCl (pH 7.5), 100 mM KCl, 1 mM MgCl₂, 1 mM dithiothreitol, 10% glycerol, 200 μg/ml bovine serum albumin, 0.02% NP-40, 20 μg/ml poly dI-dC (optionally), and 100 μM ZnCl₂, in a final volume of 20 μl. Protein was added to the binding reaction as one-fifth volume from a dilution series made in 200 mM NaCl, 20 mM Tris (pH 7.5), 1 mM DTT. Binding was allowed to proceed for 45 min at room temperature. Polyacrylamide gel electrophoresis was carried out at room temperature using precast 10% or 10-20% Tris-HCl gels (BioRad, Hercules, Calif.) and Tris-Glycine running buffer (25 mM Tris-HCl, 192 mM glycine, pH 8.3) containing 0.1 mM ZnCl₂. Radioactive signals were quantitated with a Phosphorimager.
Shifted product, indicative of labeled target with bound protein, is indicated by an arrow in FIG. 2A. The amount of shifted product was determined at each protein concentration and quantitated on a Phosphorimager (Molecular Dynamics). The relative signal (percent of maximal amount of shifted product) was plotted as a function of log₁₀ protein concentration. […]

B1: Veg1 29-mer target duplex (dsDNA)
DNA 1: CATGCATAGCGGGGAGGATCGCCATCGAT
DNA 2: ATCGATGGCGATCCTCCCCGCTATGCATG
Take B1: the Kd was about 50 nM.

Values taken from patent US20030049649, “Targeted modification of chromatin structure” (published 2003).
